Columns and labels:
hemoglobin [1] = conditions: PK-PD model estimates from different populations and structural models; cited from earlier work
Text: The estimates of red blood cell life span (67.5 days) obtained from this analysis are consistent with previously reported values in the literature (60 to 65 days in dialysis patients), [17].

[2] = Population pharmacokinetic model of peginesatide plasma concentrations (NONMEM); type: in vivo, human; conditions: for Subcutaneous bioavailability (F1): fraction
Text: (§1) These studies were: AFX01-02 (NCT00109291) [data on file], AFX01-03 (NCT00228449), AFX01-04 (NCT00228436) and AFX01-07 (NCT00434330) [data on file]). Data were also utilized from one Phase 3 study, AFX01-14 (NCT00597584) conducted in hemodialysis patients. All plasma concentration-time data obtained in Phase 2 (with frequent PK and PD sampling scheme) [7, 8, AFX01-2, AFX01-07] and Phase 3 studies, with sparse PK and frequent PD sampling schemes, were used for the development of the PK model.
The lower and upper limits of quantification for the assay were 25 and 600 ng/mL, respectively.
(§2) The concentration of hemoglobin was measured using a standard laboratory method in a Clinical Laboratory Improvement Amendments certified central laboratory. Baseline weight was used to calculate the dose (in mg/kg). The first order conditional estimation (FOCE) and first-order (FO) method as implemented in NONMEM were used for PK and PK-PD modeling. Model selection criteria included a statistically significant reduction of the objective function value (OFV) (α = 0.05) for nested models, Akaike information criteria for non-nested models, reductions in both residual (σ^2) and inter-subject (ω^2) variability, improvement in the precision of parameter estimates as measured by the percent standard error of the mean (%SEM), and visual examination of standard goodness-of-fit plots.
Several different PK models were evaluated as base structural PK models. These included: 1-compartment and 2-compartment with first-order absorption and elimination; 1-compartment and 2-compartment with first-order absorption and Michaelis-Menton (MM) elimination; and a combination of zero- and first-order absorption with linear and MM elimination. Life-span, negative-feedback and precursor-dependent Lifespan Indirect Response (LIDR) models were evaluated as potential base PK-PD models.
In order to avoid possible multicollinearity issues, GAM analyses were performed for PK and PD parameters using different combinations of covariates that were deemed to be highly correlated (r>0.6) along with the remaining covariates. The potential covariates selected following GAM analysis were then tested using a standard approach of stepwise forward addition (P<0.05) followed by stepwise backward elimination procedure (P<0.005). […] The relationship between continuous covariates and PK and PD parameters were evaluated using linear, exponential and power functions as described in Equations 9, 10, and 11 with the covariates centered or scaled at their median values: [drawing 11] [drawing 12] [drawing 13]
The adequacy of the final PK and PK-PD models was evaluated using a simulation-based prediction-corrected (pc) visual predictive check (VPC) method (1000 replicates). Due to the dose adjustment algorithm used in these trials, the pcVPC was utilized. This technique provides an enhanced ability to diagnose possible model misspecification by removing the variability introduced in an ordinary VPC when binning across a potentially large variability in dose or other influential covariates. The percent of observations outside the 90% prediction interval were also calculated to evaluate predictive ability of the model. A non-parametric bootstrap procedure (1000 bootstrap runs) was also employed to evaluate the precision of the parameter estimates and the robustness of the final PK and PK-PD models.
Inter-individual variability (IIV) was estimated for volume of the central compartment (V2), the absorption rate constant (Ka) and the concentration required to reach 50% of maximum rate of elimination (KM) using exponential models, assuming a log-normal distribution for each parameter.

hemoglobin [3] = test: Population PK-PD model (modified precursor-dependent lifespan indirect response) of hemoglobin levels; type: in vivo, human; conditions: final PK-PD model
Text: as §1
as §2, with “plots. […]” for “plots.”
In the study, baseline erythropoietin levels were not measured in all patients. […]
A generalized additive modeling (GAM) approach along with graphical analysis (plots of the inter-subject error terms for each parameter [ηi] versus covariates) was used for initial covariate screening and to determine the functional form of the relationship between the covariates and PK and PD parameters of peginesatide. […] The relationship between continuous covariates and PK and PD parameters were evaluated using linear, exponential and power functions as described in Equations 9, 10, and 11 with the covariates centered or scaled at their median values: [drawing 11] […]
The adequacy of the final PK and PK-PD models was evaluated using a simulation-based prediction-corrected (pc) visual predictive check (VPC) method (1000 replicates). […]

[4] = dialysis patients, cited from earlier work
[5] = cited from earlier work
[6] = final population PK model, 672 CKD patients on/not on dialysis, IV or SC, final estimate (% SEM)
[7] = final population PK model, SC, final estimate (% SEM)
[8] = final population PK model, median bootstrap estimate, 870/1000 converged runs
[9] = median bootstrap estimate, 935/1000 converged runs

## darbepoetin alfa
Hemoglobin [1]
  EC50: 0.41 ng/mL
  Emax: 0.637

## methoxy polyethylene glycol-epoetin beta [Micera]
Hemoglobin [1]
  EC50: 0.898 ng/mL
  Emax: 0.425

## peginesatide
[2]; concomitant medications taken by >10% of the patient population during 80% of the trial period
  effect of concomitant medications on PK or PD parameters: did not alter
[2]; estimated population value, IV and SC administration
  total volume of distribution: 43.0 mL/kg
[2]; [6]
  Central volume of distribution (V2): 35.6 (2.7) mL/kg
  Concentration needed to reach 50% of Vmax (KM): 1880 (14.6) ng/mL
  Maximum rate of elimination (Vmax): 45.3 (10.0) ng/mL/hr
[2]; [7]
  Absorption rate constant (Ka): 0.00865 (15.6) 1/hr
  Subcutaneous bioavailability (F1): 0.498 (4.4)
[2]; final population PK model, final estimate (% SEM)
  Peripheral volume of distribution (V3): 7.44 (10.3) mL/kg
[2]; [8]
  Subcutaneous bioavailability (F1): 0.499
  Absorption rate constant (Ka): 0.00869 h⁻¹
  Age slope for V2: –0.125 L/yr
  BMI power for V2: –0.485
  Central volume of distribution (V2): 35.6 mL/kg
  Concentration needed to reach 50% of Vmax (KM): 1860 ng/mL
  ETHN shift for Ka: 0.00815 (1/hr)
  Maximum rate of elimination (Vmax): 44.7 ng/mL/h
  Peripheral volume of distribution (V3): 7.42 mL/kg
  TBILI slope for V2: 0.482 L/(g/L)
[2]; model estimated, final population PK model
  bioavailability after SC administration: approximately 50%
[2]; population PK model, over the evaluated dose range
  linearity of pharmacokinetics: non-linear pharmacokinetics
Hemoglobin [3]; 517 hemodialysis patients, IV or SC, plasma concentration, final estimate (% SEM)
  Drug concentration required for 50% of maximum response (EC50): 401 (2.0) ng/mL
Hemoglobin [3]; [9]
  Drug concentration required for 50% of maximum response (EC50): 417 ng/mL
  Maximum pharmacologic effect (Emax): 0.564
[4]; IV administration, mean ± standard deviation
  mean volume of distribution: 34.9 ± 13.8 mL/kg
[4]; IV or SC administration every 4 weeks
  accumulation: No accumulation
[4]; SC administration
  bioavailability: approximately 46%
  time at which Cmax is reached: approximately 48 hours
[5]; healthy volunteers
  volume of distribution: 35 mL/kg
[5]; human, in vivo, sc
  half-life (T1/2): 53.0 ± 17.7 h
